The target of assay [1] is T1, APC1242-AA.
T1 chain: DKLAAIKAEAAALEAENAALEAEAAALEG
As to the kind of experiment: two-hybrid library CCmax.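 Also: natural log of median RNA to DNA barcode read ratio; higher means stronger binding.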

Assay [2] concerns the target T2, APC1916-AA.
T2 chain: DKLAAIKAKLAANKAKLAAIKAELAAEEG
As to the kind of experiment: two-hybrid library CCmax.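 Also: natural log of median RNA to DNA barcode read ratio; higher means stronger binding.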 As to conditions: mean of both orientations.

Assay [3] concerns the target T3, APC1987-AA.
T3 chain: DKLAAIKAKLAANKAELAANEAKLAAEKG
As to the kind of experiment: two-hybrid library CCmax.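 Also: natural log of median RNA to DNA barcode read ratio; higher means stronger binding.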 The note with it: mean of both orientations.

Assay [4] has as its target T4, APC222-AA.
T4 chain: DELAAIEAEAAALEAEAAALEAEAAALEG
The assay can be described thus: two-hybrid library CCmax.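 Also: natural log of median RNA to DNA barcode read ratio; higher means stronger binding.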 The note with it: mean of both orientations.

The target in assay [5] is T5, APC2257-AA.
T5 chain: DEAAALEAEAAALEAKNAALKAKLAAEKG
As to the kind of experiment: two-hybrid library CCmax.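 Also: natural log of median RNA to DNA barcode read ratio; higher means stronger binding.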 As to conditions: mean of both orientations.

Assay [6] has as its target T6, APC2375-AA.
T6 chain: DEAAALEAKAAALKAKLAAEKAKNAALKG
The assay can be described thus: two-hybrid library CCmax.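 Also: natural log of median RNA to DNA barcode read ratio; higher means stronger binding.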 The note with it: mean of both orientations.

For assay [7], the target named is T7, APC2474-AA.
T7 chain: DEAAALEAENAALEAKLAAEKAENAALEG
As to the kind of experiment: two-hybrid library CCmax. The note with it: mean of both orientations.

Assay [8] concerns the target T8, APC2543-AA.
T8 chain: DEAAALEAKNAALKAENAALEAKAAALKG
The assay can be described thus: two-hybrid library CCmax. As to conditions: mean of both orientations.

Assay [9] concerns the target T9, APC2556-AA.
T9 chain: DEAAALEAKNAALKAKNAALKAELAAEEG
As to the kind of experiment: two-hybrid library CCmax. As to conditions: mean of both orientations.

The target of assay [10] is T10, APC2724-AA.
T10 chain: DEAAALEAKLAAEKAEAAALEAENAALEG
The assay can be described thus: two-hybrid library CCmax. The note with it: mean of both orientations.

In assay [11] the target is T11, APC2811-AA.
T11 chain: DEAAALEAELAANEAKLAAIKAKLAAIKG
As to the kind of experiment: two-hybrid library CCmax. As to conditions: mean of both orientations.

The target of assay [12] is T12, APC2981-AA.
T12 chain: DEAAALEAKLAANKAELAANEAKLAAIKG
The assay can be described thus: two-hybrid library CCmax. As to conditions: mean of both orientations.

Assay [13] addresses T13, APC3265-AA.
T13 chain: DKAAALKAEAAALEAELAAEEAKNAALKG
The assay can be described thus: two-hybrid library CCmax. The note with it: mean of both orientations.

The target in assay [14] is T14, APC3323-AA.
T14 chain: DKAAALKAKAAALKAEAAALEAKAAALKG
The assay can be described thus: two-hybrid library CCmax. As to conditions: mean of both orientations.

The target in assay [15] is T15, APC3354-AA.
T15 chain: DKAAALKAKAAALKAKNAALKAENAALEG
As to the kind of experiment: two-hybrid library CCmax. As to conditions: mean of both orientations.

For assay [16], the target named is T16, APC3881-AA.
T16 chain: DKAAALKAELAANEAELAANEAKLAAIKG
As to the kind of experiment: two-hybrid library CCmax. As to conditions: mean of both orientations.

Assay [17] deals with T17, APC4100-AA.
T17 chain: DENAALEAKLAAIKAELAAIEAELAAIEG
The assay can be described thus: two-hybrid library CCmax. As to conditions: mean of both orientations.

Assay [18] deals with T18, APC4336-AA.
T18 chain: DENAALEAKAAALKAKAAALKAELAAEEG
The assay can be described thus: two-hybrid library CCmax. As to conditions: mean of both orientations.

The target in assay [19] is T19, APC5009-AA.
T19 chain: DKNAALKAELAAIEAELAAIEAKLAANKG
The assay can be described thus: two-hybrid library CCmax. As to conditions: mean of both orientations.

In assay [20] the target is T20, APC542-AA.
T20 chain: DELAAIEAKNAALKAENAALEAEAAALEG
The assay can be described thus: two-hybrid library CCmax. The note with it: mean of both orientations.

Assay [21] concerns the target T21, APC5531-AA.
T21 chain: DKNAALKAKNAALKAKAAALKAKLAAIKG
As to the kind of experiment: two-hybrid library CCmax. The note with it: mean of both orientations.

Assay [22] concerns the target T22, APC6088-AA.
T22 chain: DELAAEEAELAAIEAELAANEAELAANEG
As to the kind of experiment: two-hybrid library CCmax. As to conditions: mean of both orientations.

Assay [23] concerns the target T23, APC7524-AA.
T23 chain: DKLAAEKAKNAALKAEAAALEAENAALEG
The assay can be described thus: two-hybrid library CCmax. As to conditions: mean of both orientations.

Assay [24] has as its target T24, APC8401-AA.
T24 chain: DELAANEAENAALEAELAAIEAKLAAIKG
The assay can be described thus: two-hybrid library CCmax. As to conditions: mean of both orientations.

Assay [25] deals with T25, APC8516-AA.
T25 chain: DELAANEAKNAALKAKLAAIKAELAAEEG
As to the kind of experiment: two-hybrid library CCmax. The note with it: mean of both orientations.

Assay [26] addresses T26, APC9141-AA.
T26 chain: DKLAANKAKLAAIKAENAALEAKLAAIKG
The assay can be described thus: two-hybrid library CCmax. The note with it: mean of both orientations.

Assay [27] deals with T27, APC9182-AA.
T27 chain: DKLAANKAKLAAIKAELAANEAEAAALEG
As to the kind of experiment: two-hybrid library CCmax. As to conditions: mean of both orientations.

Assay [28] concerns the target T28, APC9291-AA.
T28 chain: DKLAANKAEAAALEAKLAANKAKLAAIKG
The assay can be described thus: two-hybrid library CCmax. The note with it: mean of both orientations.

The target in assay [29] is T29, APC9806-AA.
T29 chain: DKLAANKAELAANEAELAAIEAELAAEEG
The assay can be described thus: two-hybrid library CCmax. The note with it: mean of both orientations.

The target of assay [30] is T30, P4SH.
T30 chain: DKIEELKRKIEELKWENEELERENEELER
As to the kind of experiment: two-hybrid library CCNG1.

Assay [31] has as its target T31, P5SH.
T31 chain: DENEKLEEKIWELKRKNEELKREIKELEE
As to the kind of experiment: two-hybrid library CCNG1.

In assay [32] the target is T32, P6SH.
T32 chain: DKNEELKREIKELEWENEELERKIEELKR
As to the kind of experiment: two-hybrid library CCNG1.

For assay [33], the target named is T33, P7SH.
T33 chain: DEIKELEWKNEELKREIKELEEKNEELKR
The assay can be described thus: two-hybrid library CCNG1.

For assay [34], the target named is T34, P8SH.
T34 chain: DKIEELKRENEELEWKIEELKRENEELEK
The assay can be described thus: two-hybrid library CCNG1.

The record followed here is PMC10397247.

Regarding DKLAAIKAEAAALEAENAALEAEAAALEG [APC1242-AA], the interaction score in assay [1] is -1.39; in assay [2] it was -0.197; in assay [3] it was -1.67; in [4], -1.71; in [5], -1.45; in assay [6], -1.54. Also, the interaction score is -1.53 in assay [7]; -1.38 in assay [8]; -1.73 in assay [9]; -1.96 in assay [10]; -1.73 in [11]; -1.87 in assay [12]. Also, the interaction score in assay [13] was -1.56; in assay [14] it was -1.85; in assay [15], -1.74; in assay [16] it was -1.81; in assay [17] it was -1.76; in [18], -2.21. Also, the interaction score is -1.74 in [19]; -2.16 in assay [20]; -1.83 in assay [21]; -1.12 in assay [22]; -1.82 in [23]; -1.53 in assay [24]. Besides, the interaction score in assay [25] was -1.75; in assay [26], -1.7; in [27], -1.34; in [28] it was -1.76; in [29], -1.43.
With DKIEELKRKIEELKWENEELERENEELER [P4SH], the interaction score in assay [30] was -0.1; in assay [31], -0.643; in assay [32], -0.892; in [33], -1.17; in [34] it was -0.776.
